Results reported in publication doi:10.1101/2022.07.22.501112, “An unexpected histone chaperone function for the MIER1 histone deacetylase complex” (bioRxiv, 2022).
Numbered stars: 1 amine (or outer) side, 2 acyl side, 3 side chain; on linkers, the order of the positions; unused ones are H or OH. Square brackets hold non-standard residues; d marks the D form. Ends that are not written are not given here. Lys(Me3) = C[N+](C)(C)CCCC[C@H](N)C(=O)O; Ethylenediamine = C(CN[*:2])N[*:1]; 5‑FAM = fluorescent label

T1: E. coli expressed BAHD1(aa:588-780) (UniProt Q8TBE0 588-780)
T1 construct: BAHD1, BAH domain, residues 588-780; also called BAH domain of BAHD1; source: E. coli expressed
T1 sequence (looked up): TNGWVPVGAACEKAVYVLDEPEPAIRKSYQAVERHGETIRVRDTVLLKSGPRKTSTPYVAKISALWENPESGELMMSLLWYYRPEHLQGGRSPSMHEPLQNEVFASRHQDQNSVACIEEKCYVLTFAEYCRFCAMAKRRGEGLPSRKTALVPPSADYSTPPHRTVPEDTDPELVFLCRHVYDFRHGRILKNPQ

B1: FLAG-tagged MIER1(aa:171-350), ELM2-SANT domain (domain or fragment, human, UniProt Q8N108 171-350, looked up)
chain: DYIPSEDWKKEIMVGSMFQAEIPVGICRYKENEKVYENDDQLLWDPEYLPEDKVIIFLKDASRRTGDEKGVEAIPEGSHIKDNEQALYELVKCNFDTEEALRRLRFNVKAAREELSVWTEEECRNFEQGLKAYGKDFHLIQANKVRTRSVGECVAFYYMWKKSERYDFFAQQTRFGKKKY
notes: Captured on anti-FLAG resin by the tag; the tag was then cut off by TEV protease before gel filtration and SEC-MALS (21 kDa counted for the fragment); also called MIER ELM2-SANT; source: HEK293F, co-transfected with HDAC1; anti-FLAG resin, TEV cleavage, Superdex S200; not shown: 10xHis-3xFLAG, N-terminal, kept
B2: H3 16-35 K27me3 peptide (peptide)
peptide: PRKQLATKAAR[Lys(Me3)]SAPATGG-{Ethylenediamine-4‑Abu-5‑FAM}
notes: The twelfth letter (K27) is trimethyl-lysine; also called H3 histone tail bearing a K27me3 modification; source: synthetic peptide, bought: Cambridge Research Biochemicals

Legend:
[1] = biological target: T2, Full length HDAC1(aa:1-482) (UniProt Q13547 1-482); experiment: co-IP + SEC; FLAG-tagged MIER1 construct co-expressed with untagged HDAC1 in HEK293F; anti-FLAG M2 resin, TEV cleavage, Superdex S200 in 25 mM Tris/HCl pH 7.5, 50 mM potassium acetate, 0.5 mM TCEP; SDS-PAGE, bands identified by MS; conditions: partners not purified
T2 construct: also called histone deacetylase 1
T2 sequence (Q13547 whole entry): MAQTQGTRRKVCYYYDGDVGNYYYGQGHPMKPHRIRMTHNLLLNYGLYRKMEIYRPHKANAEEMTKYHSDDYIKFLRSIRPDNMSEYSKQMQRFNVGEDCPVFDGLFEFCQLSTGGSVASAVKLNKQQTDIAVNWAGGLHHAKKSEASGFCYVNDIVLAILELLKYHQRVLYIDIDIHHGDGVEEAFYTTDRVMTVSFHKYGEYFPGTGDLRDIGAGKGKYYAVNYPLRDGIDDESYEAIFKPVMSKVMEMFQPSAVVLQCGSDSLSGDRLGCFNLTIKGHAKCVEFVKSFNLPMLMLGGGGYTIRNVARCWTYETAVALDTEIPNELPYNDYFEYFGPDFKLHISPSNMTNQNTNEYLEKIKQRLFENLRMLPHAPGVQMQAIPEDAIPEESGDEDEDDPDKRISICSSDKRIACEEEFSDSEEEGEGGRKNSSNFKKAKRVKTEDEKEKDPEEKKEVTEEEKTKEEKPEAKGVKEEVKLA

[2] = biological target: T1, E. coli expressed BAHD1(aa:588-780); experiment: fluorescence polarisation; 5 nM 5-FAM labelled histone peptide, BAHD1(aa:588-780) 0-142 uM, 25 mM Tris/Cl pH 7.5, 50 mM NaCl, 15 mins at 37 C; one-site binding model; conditions: both partners purified

Binder | binding result [1] | binding result [2]
B1 | binds | 
B2 |  | binds
